Reference: PMC11079029, “Intramolecular autoinhibition regulates the selectivity of PRPF40A tandem WW domains for proline-rich motifs” (Nature Communications, 2024)

B1: RBM17 (protein, UniProt Q96I25 2-401, looked up)
Splicing factor 45: SLYDDLGVETSDSKTEGWSKNFKLLQSQLQVKKAALTQAKSQRTKQSTVLAPVIDLKRGGSSDDRQIVDTPPHVAAGLKDPVPSGFSAGEVLIPLADEYDPMFPNDYEKVVKRQREERQRQRELERQKEIEEREKRRKDRHEASGFARRPDPDSDEDEDYERERRKRSMGGAAIAPPTSLVEKDKELPRDFPYEEDSRPRSQSSKAAIPPPVYEEQDRPRSPTGPSNSFLANMGGTVAHKIMQKYGFREGQGLGKHEQGLSTALSVEKTSKRGGKIIVGDATEKDASKKSDSNPLTEILKCPTKVVLLRNMVGAGEVDEDLEVETKEECEKYGKVGKCVIFEIPGAPDDEAVRIFLEFERVESAIKAVVDLNGRYFGGRVVKACFYNLDKFRVLDLAEQV
B2: ATAD3A (protein, UniProt Q9NVI7 2-586, looked up)
ATPase family AAA …: SWLFGINKGPKGEGAGPPPPLPPAQPGAEGGGDRGLGDRPAPKDKWSNFDPTGLERAAKAARELEHSRYAKDALNLAQMQEQTLQLEQQSKLKEYEAAVEQLKSEQIRAQAEERRKTLSEETRQHQARAQYQDKLARQRYEDQLKQQQLLNEENLRKQEESVQKQEAMRRATVEREMELRHKNEMLRVEAEARARAKAERENADIIREQIRLKAAEHRQTVLESIRTAGTLFGEGFRAFVTDWDKVTATVAGLTLLAVGVYSAKNATLVAGRFIEARLGKPSLVRETSRITVLEALRHPIQVSRRLLSRPQDALEGVVLSPSLEARVRDIAIATRNTKKNRSLYRNILMYGPPGTGKTLFAKKLALHSGMDYAIMTGGDVAPMGREGVTAMHKLFDWANTSRRGLLLFVDEADAFLRKRATEKISEDLRATLNAFLYRTGQHSNKFMLVLASNQPEQFDWAINDRINEMVHFDLPGQEERERLVRMYFDKYVLKPATEGKQRLKLAQFDYGRKCSEVARLTEGMSGREIAQLAVSWQATAYASEDGVLTEAMMDTRVQDAVQQHQQKMCWLKAEGPGRGDEPSPS
B3: SF1 (protein, UniProt Q15637 2-639, looked up)
Splicing factor 1: ATGANATPLDFPSKKRKRSRWNQDTMEQKTVIPGMPTVIPPGLTREQERAYIVQLQIEDLTRKLRTGDLGIPPNPEDRSPSPEPIYNSEGKRLNTREFRTRKKLEEERHNLITEMVALNPDFKPPADYKPPATRVSDKVMIPQDEYPEINFVGLLIGPRGNTLKNIEKECNAKIMIRGKGSVKEGKVGRKDGQMLPGEDEPLHALVTANTMENVKKAVEQIRNILKQGIETPEDQNDLRKMQLRELARLNGTLREDDNRILRPWQSSETRSITNTTVCTKCGGAGHIASDCKFQRPGDPQSAQDKARMDKEYLSLMAELGEAPVPASVGSTSGPATTPLASAPRPAAPANNPPPPSLMSTTQSRPPWMNSGPSESRPYHGMHGGGPGGPGGGPHSFPHPLPSLTGGHGGHPMQHNPNGPPPPWMQPPPPPMNQGPHPPGHHGPPPMDQYLGSTPVGSGVYRLHQGKGMMPPPPMGMMPPPPPPPSGQPPPPPSGPLPPWQQQQQQPPPPPPPSSSMASSTPLPWQQNTTTTTTSAGTGSIPPWQQQQAAAAASPGAPQMQGNPTMVPLPPGVQPPLPPGAPPPPPPPPPGSAGMMYAPPPPPPPPMDPSNFVTMMGMGVAGMPPFGMPPAPPPPPPQN
B4: SF3B2 (protein, UniProt Q13435 1-895, looked up)
Splicing factor 3B subunit 2: MATEHPEPPKAELQLPPPPPPGHYGAWAAQELQAKLAEIGAPIQGNREELVERLQSYTRQTGIVLNRPVLRGEDGDKAAPPPMSAQLPGIPMPPPPLGLPPLQPPPPPPPPPPGLGLGFPMAHPPNLGPPPPLRVGEPVALSEEERLKLAQQQAALLMQQEERAKQQGDHSLKEHELLEQQKRAAVLLEQERQQEIAKMGTPVPRPPQDMGQIGVRTPLGPRVAAPVGPVGPTPTVLPMGAPVPRPRGPPPPPGDENREMDDPSVGPKIPQALEKILQLKESRQEEMNSQQEEEEMETDARSSLGQSASETEEDTVSVSKKEKNRKRRNRKKKKKPQRVRGVSSESSGDREKDSTRSRGSDSPAADVEIEYVTEEPEIYEPNFIFFKRIFEAFKLTDDVKKEKEKEPEKLDKLENSAAPKKKGFEEEHKDSDDDSSDDEQEKKPEAPKLSKKKLRRMNRFTVAELKQLVARPDVVEMHDVTAQDPKLLVHLKATRNSVPVPRHWCFKRKYLQGKRGIEKPPFELPDFIKRTGIQEMREALQEKEEQKTMKSKMREKVRPKMGKIDIDYQKLHDAFFKWQTKPKLTIHGDLYYEGKEFETRLKEKKPGDLSDELRISLGMPVGPNAHKVPPPWLIAMQRYGPPPSYPNLKIPGLNSPIPESCSFGYHAGGWGKPPVDETGKPLYGDVFGTNAAEFQTKTEEEEIDRTPWGELEPSDEESSEEEEEEESDEDKPDETGFITPADSGLITPGGFSSVPAGMETPELIELRKKKIEEAMDGSETPQLFTVLPEKRTATVGGAMMGSTHIYDMSTVMSRKGPAPELQGVEVALAPEELELDPMAMTQKYEEHVREQQAQVEKEDFSDMVAEHAAKQKQKKRKAQPQDSRGGSKKYKEFKF
B5: SF3B3 (protein, UniProt Q15393 1-1217, looked up)
Splicing factor 3B subunit 3: MFLYNLTLQRATGISFAIHGNFSGTKQQEIVVSRGKILELLRPDPNTGKVHTLLTVEVFGVIRSLMAFRLTGGTKDYIVVGSDSGRIVILEYQPSKNMFEKIHQETFGKSGCRRIVPGQFLAVDPKGRAVMISAIEKQKLVYILNRDAAARLTISSPLEAHKANTLVYHVVGVDVGFENPMFACLEMDYEEADNDPTGEAAANTQQTLTFYELDLGLNHVVRKYSEPLEEHGNFLITVPGGSDGPSGVLICSENYITYKNFGDQPDIRCPIPRRRNDLDDPERGMIFVCSATHKTKSMFFFLAQTEQGDIFKITLETDEDMVTEIRLKYFDTVPVAAAMCVLKTGFLFVASEFGNHYLYQIAHLGDDDEEPEFSSAMPLEEGDTFFFQPRPLKNLVLVDELDSLSPILFCQIADLANEDTPQLYVACGRGPRSSLRVLRHGLEVSEMAVSELPGNPNAVWTVRRHIEDEFDAYIIVSFVNATLVLSIGETVEEVTDSGFLGTTPTLSCSLLGDDALVQVYPDGIRHIRADKRVNEWKTPGKKTIVKCAVNQRQVVIALTGGELVYFEMDPSGQLNEYTERKEMSADVVCMSLANVPPGEQRSRFLAVGLVDNTVRIISLDPSDCLQPLSMQALPAQPESLCIVEMGGTEKQDELGERGSIGFLYLNIGLQNGVLLRTVLDPVTGDLSDTRTRYLGSRPVKLFRVRMQGQEAVLAMSSRSWLSYSYQSRFHLTPLSYETLEFASGFASEQCPEGIVAISTNTLRILALEKLGAVFNQVAFPLQYTPRKFVIHPESNNLIIIETDHNAYTEATKAQRKQQMAEEMVEAAGEDERELAAEMAAAFLNENLPESIFGAPKAGNGQWASVIRVMNPIQGNTLDLVQLEQNEAAFSVAVCRFSNTGEDWYVLVGVAKDLILNPRSVAGGFVYTYKLVNNGEKLEFLHKTPVEEVPAAIAPFQGRVLIGVGKLLRVYDLGKKKLLRKCENKHIANYISGIQTIGHRVIVSDVQESFIWVRYKRNENQLIIFADDTYPRWVTTASLLDYDTVAGADKFGNICVVRLPPNTNDEVDEDPTGNKALWDRGLLNGASQKAEVIMNYHVGETVLSLQKTTLIPGGSESLVYTTLSGGIGILVPFTSHEDHDFFQHVEMHLRSEHPPLCGRDHLSFRSYYFPVKNVIDGDLCEQFNSMEPNKQKNVSEELDRTPPEVSKKLEDIRTRYAF

Tested on: GFP-tagged PRPF40A-Nter-MUT
Test: SILAC GFP-immunoprecipitation with quantitative mass spectrometry, mutant construct
Assay type: binding, human (Hela cells)
Conditions: quantitative MS, Hela cells, protein by gene name
Method: The PRPF40A N-terminal region (isoform 2, residues 1-221) was PCR-amplified from RPE1 cDNA (ATCC, Cat# CRL-4000) cDNA. The sequence was amplified in two fragments and both fragments were combined by overhang. All PCRs were carried out using Q5 Polymerase (NEB) according to manufacturer’s protocol. The resulting PRPF40A N-terminal region was cloned into a GFP-expressing pcDNA5 vector (see pcDNA5 GFP vector in ref. [28]) using Q5 Site-Directed Mutagenesis Kit (NEB). Nter-MUT, containing the PPVP/PALPP motifs changed to AAAA/AAAAA, was obtained by mutating the N-ter-WW12-containing plasmid with Q5 site-directed mutagenesis. Plasmids were transformed into DH5alpha chemically competent cells. After culturing, DNA isolation was performed with either ZymoPURE Plasmid Miniprep Kit (Zymo Research) or QIAGEN Plasmid Plus Midi Kit (Qiagen). The sequence was confirmed by Sanger Sequencing (GATC Eurofins). All used oligonucleotides are shown in Supplementary Table 6.
Hela cells (ATCC, Cat# CCL-2, RRID:CVCL_0030) were cultured in DMEM SILAC medium (Thermo Fisher) supplemented with 10% filtered FBS (Sigma-Aldrich) and 1% penicillin-streptomycin (Thermo-Fisher). The SILAC medium contains either light (Arg0, Lys0), medium (Arg6, Lys4) or heavy (Arg10, Lys8) isotopes (Cambridge Isotopes Laboratories). Hela cells were cultivated for 14 days in SILAC medium to assure sufficient isotope incorporation. For transfection, 7 × 10^6 Hela cells were seeded in a 15 cm culture dish in 20 ml of respective SILAC medium and grown for 24 h. The cells were then transfected with 20 µg of plasmids expressing either GFP (Control), GFP-tagged N-ext-WW12 or GFP-tagged-N-ext-WW12-MUT utilizing 64 µl FuGENE (Promega) (ratio 1:3.2), according to manufacturer’s protocol.
24 h post-transfection, cells were washed twice in ice-cold PBS and harvested in 1 ml mRIPA buffer (50 mM Tris, 150 mM NaCl, 1 mM EDTA, 1% NP-40, 0.1% Na-deoxycholate), supplemented with 2 µl Turbo-DNase (Thermo Fisher) and 3 µl protease-inhibitor cocktail cOmplete (Sigma-Aldrich). Cell lysates were cleared by centrifugation at 16,000 × g, 4 °C, 15 min and concentration was measured using Pierce BCA Protein Assay kit (Thermo Scientific). The expressed constructs were pulled down by incubating 2.5 mg of lysate with 20 μl GFP-nanobody agarose beads (ChromoTek, GTA-20) for 1 h at 4 °C under constant agitation. Subsequently, beads were washed three times with mRIPA buffer without supplements, then eluted in 1X NuPAGE LDS sample buffer (Thermo Scientific). To detach the proteins from the beads, the eluate was heated to 70 °C for 10 min To evaluate the success of the immunoprecipitation, input (1%) and IP samples were analyzed on a NuPAGE 4–12% Bis-Tris-Acrylamide gel (Thermo Fisher) using NuPAGE MOPS SDS running buffer (Thermo Fisher). Proteins were stained using Sypro Ruby protein gel stain (Thermo Fisher) according to manufacturer’s protocol.
The eluted proteins of three SILAC states (light, medium, heavy) were combined. The proteins were then reduced in DTT, alkylated in iodoacetamide, and purified using the SP3 paramagnetic bead approach. This was followed by overnight enzymatic digestion using trypsin (1 µg per sample) in 50 mM ammonium bicarbonate at 37 °C. The peptide solution was then purified by solid phase extraction in C18 StageTips[99].
Peptides were separated by online reverse phase liquid chromatography using the EASY-nLC 1000 system (Thermo Scientific) in a 30-cm analytical column (inner diameter: 75 μm; heated at 50 °C) packed in-house with ReproSil-Pur 120 C18-AQ 1.9-μm beads (Dr. Maisch GmbH). The gradient separation was performed through a 105-min non-linear gradient of 1.6–32% acetonitrile with 0.1% formic acid at a nanoflow rate of 225 nl/min. The eluted peptides were sprayed directly by electrospray ionization into a Q Exactive Plus Orbitrap mass spectrometer (Thermo Scientific). […]

Molecule	Immunoprecipitation enrichment MUT vs WT, log2 FC
B1	1.293
B2	1.016
B3	0.9625
B4	0.8966
B5	0.8966
